The target in data set [1] is BabSPARTA complex (BabAgo:BabTIR-APAZ heterodimer) (Bacillales bacterium). As to the kind of experiment: cryo-EM structure.
For data set [2], the target named is T1, BabAgo (short pAgo subunit of BabSPARTA);BabTIR-APAZ (subunit of BabSPARTA) (Bacillales bacterium;Bacillales …, UniProt PDB:8QLP_2;PDB:8QLP_1 1-507;1-452, |).
T1 sequence 1: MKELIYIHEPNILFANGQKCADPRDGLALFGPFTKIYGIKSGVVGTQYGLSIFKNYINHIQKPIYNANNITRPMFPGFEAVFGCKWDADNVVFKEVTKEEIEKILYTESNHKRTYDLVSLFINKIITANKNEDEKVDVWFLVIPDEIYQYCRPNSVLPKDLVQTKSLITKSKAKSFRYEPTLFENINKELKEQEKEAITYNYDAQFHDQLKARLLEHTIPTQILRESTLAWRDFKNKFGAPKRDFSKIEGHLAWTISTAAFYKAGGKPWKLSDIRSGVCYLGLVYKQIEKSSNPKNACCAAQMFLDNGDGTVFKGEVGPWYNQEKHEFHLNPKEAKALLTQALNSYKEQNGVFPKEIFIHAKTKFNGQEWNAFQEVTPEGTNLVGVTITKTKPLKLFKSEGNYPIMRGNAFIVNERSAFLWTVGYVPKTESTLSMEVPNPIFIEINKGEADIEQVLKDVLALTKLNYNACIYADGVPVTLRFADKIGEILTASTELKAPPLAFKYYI
T1 sequence 2: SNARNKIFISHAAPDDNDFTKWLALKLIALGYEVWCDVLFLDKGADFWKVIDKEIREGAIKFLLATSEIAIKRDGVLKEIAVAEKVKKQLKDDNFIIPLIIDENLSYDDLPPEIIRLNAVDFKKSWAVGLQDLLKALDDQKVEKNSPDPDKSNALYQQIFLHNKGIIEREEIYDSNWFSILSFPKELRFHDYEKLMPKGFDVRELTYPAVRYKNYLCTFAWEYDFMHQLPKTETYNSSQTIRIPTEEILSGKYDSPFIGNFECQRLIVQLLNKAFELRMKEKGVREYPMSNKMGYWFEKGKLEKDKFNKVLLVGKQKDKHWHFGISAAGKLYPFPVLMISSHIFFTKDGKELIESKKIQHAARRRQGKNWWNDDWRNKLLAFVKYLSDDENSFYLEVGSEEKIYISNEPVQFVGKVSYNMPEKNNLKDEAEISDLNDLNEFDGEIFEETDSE
As to the kind of experiment: cryo-EM structure.

For orientation: stoichiometry N means a count of units in the complex or per binding partner.

On to “BabSPARTA complex (BabAgo:BabTIR-APAZ heterodimer)”, for which the stoichiometry N in data set [1] amounted to 4.

B1: guide RNA oBK084 / target DNA oBK382 (DNA:RNA)
RNA: UGACGGCUCUAAUCUAUUAGU
DNA: CAACTAATAGATTAGAGCCGTCAAT
modifications: 5'-phosphate on guide RNA
Regarding B1, in data set [2], the binding result was “binds”.

For the origin of these results see PMC10899771.
